One block for each binder: values may come before it.
Legend:
[1] = target: T1, rat SEZ6 on RIN-m5F cells (rat, UniProt Q7TSK2 20-991 (mouse entry)); assay: flow cytometry, RIN-m5F cells, 5 ug/mL antibody
T1 construct: endogenous on RIN-m5F cells; also called rSEZ6
T1 chain: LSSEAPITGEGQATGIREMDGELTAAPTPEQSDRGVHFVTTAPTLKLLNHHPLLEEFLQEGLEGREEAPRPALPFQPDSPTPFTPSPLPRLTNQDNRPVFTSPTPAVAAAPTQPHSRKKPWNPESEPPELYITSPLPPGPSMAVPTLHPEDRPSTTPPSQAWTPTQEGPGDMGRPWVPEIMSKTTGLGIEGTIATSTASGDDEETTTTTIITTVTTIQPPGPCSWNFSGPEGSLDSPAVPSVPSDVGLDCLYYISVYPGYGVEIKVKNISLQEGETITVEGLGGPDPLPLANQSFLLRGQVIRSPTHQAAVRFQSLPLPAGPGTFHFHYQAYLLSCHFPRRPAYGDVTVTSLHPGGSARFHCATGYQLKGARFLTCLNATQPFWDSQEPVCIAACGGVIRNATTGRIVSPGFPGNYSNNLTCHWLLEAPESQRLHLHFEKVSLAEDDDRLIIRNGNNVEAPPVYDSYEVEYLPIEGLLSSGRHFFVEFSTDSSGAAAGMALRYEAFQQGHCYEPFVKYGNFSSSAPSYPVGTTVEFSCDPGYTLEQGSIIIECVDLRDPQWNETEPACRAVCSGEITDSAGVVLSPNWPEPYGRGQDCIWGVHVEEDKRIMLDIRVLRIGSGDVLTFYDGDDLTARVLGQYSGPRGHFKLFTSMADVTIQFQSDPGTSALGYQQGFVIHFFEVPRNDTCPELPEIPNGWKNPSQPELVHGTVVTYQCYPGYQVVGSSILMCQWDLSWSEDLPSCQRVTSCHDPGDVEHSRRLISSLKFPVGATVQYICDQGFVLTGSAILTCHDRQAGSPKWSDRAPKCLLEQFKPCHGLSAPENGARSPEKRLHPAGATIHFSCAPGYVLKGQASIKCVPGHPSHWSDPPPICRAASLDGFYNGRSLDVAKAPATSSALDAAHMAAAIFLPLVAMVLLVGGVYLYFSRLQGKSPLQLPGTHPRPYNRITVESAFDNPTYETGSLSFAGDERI
Experimental: (§1) Briefly 1×10⁵ cells per well of Neuro2a, RIN-5mF, or yeast displaying cynomolgus SEZ6 cells were incubated for 30 minutes with 50 μL PBS (2% FCS) buffer with 5 μg/mL antibody. […] After incubating for 15 minutes cells were washed twice with the PBS buffer and re-suspended in the same with DAPI for flow cytometry analysis of Neuro2a and Rin-m5F or buffer without DAPI for flow cytometric analysis of yeast cells with cSEZ6.

[2] = target: T2, human SEZ6L2 ECD-His (human, UniProt Q6UXD5 28-843); assay: ELISA on plates coated with SEZ6L2 protein
T2 construct: whole entry named
T2 sequence (Q6UXD5 other isoform, or with tags, fused parts or gaps): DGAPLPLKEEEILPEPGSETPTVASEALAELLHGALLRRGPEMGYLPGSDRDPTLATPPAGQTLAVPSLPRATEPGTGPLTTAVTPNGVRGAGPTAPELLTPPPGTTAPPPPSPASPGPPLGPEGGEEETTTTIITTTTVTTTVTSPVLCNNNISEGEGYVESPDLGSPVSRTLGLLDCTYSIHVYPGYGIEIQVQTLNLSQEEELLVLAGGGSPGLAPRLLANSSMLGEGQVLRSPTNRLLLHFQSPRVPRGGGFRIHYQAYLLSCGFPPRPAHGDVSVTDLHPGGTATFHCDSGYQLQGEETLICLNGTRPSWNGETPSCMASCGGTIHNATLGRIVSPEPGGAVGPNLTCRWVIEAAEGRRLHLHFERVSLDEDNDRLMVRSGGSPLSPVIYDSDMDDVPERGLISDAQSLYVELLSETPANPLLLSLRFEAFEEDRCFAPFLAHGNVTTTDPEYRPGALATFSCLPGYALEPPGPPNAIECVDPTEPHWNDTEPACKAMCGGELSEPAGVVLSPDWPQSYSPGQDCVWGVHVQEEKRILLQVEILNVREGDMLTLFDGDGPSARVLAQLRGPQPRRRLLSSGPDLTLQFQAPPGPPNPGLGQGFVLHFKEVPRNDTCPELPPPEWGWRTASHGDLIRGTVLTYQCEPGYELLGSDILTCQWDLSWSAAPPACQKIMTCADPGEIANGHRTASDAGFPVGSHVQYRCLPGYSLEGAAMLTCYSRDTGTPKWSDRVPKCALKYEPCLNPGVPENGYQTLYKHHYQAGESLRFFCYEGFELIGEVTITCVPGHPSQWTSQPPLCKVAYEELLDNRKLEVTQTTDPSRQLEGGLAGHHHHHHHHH
Experimental: To determine cross reactivity to family member proteins, SEZ6L and SEZ6L2, an ELISA-based assay was used. Plates were coated with SEZ6, SEZ6L, or SEZ6L2 proteins at 0.2 μg/mL in PBS overnight. After washing with PBS containing 0.05% (v/v) Tween 20 (PB ST), the wells were blocked with 2% (w/v) BSA in PBS (PB SA), 100 μL/well for 1 hour at room temperature. Antibody was then added at 1 μg/mL in 100 μL PBSA for 1 hour at room temperature. After washing with PBST, 100 μL/well HRP-labeled goat anti-mouse IgG diluted 1:2,000 in PBSA for 1 hour at room temperature. […] After developing, an equal volume of 2M H₂SO₄ was added to stop substrate development and analyzed by spectrophotometer at OD 450.

[3] = target: T3, extracellular domain of cynomolgus SEZ6 on yeast (cynomolgus, UniProt Q53EL9 23-925 (human entry)); assay: flow cytometry, yeast displaying cynomolgus SEZ6 ECD, 5 ug/mL antibody
T3 construct: yeast display; the whole entry is named; also called cSEZ6; cynomolgus SEZ6 ECD
T3 chain: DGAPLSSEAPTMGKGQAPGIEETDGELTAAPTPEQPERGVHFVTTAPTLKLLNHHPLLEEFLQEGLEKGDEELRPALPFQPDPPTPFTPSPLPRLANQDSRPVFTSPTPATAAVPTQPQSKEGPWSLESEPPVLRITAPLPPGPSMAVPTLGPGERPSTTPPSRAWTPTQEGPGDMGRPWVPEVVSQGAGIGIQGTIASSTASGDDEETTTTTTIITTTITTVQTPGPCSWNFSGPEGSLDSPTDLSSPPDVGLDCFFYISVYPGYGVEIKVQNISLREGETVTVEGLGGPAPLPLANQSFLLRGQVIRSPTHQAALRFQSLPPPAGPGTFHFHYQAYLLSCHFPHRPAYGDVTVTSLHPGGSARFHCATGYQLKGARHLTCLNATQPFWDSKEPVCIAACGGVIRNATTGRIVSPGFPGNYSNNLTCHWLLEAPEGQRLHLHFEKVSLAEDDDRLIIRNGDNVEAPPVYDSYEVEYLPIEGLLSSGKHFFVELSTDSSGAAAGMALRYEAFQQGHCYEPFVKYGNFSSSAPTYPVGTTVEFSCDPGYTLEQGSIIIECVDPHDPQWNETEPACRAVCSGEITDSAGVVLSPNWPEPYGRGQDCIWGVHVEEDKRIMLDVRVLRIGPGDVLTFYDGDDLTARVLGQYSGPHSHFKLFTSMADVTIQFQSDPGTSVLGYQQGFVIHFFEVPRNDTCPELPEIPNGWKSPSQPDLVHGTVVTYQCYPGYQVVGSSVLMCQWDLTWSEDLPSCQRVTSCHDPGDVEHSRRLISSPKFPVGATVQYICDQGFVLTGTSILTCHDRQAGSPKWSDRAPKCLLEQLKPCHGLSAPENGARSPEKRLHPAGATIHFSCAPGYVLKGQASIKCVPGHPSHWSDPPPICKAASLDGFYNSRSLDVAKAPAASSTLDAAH
Experimental: as §1

binding result [1]: binds
binding result [2]: no binding (tested: 1 µg/mL)
binding result [3]: binds
B1: SC17.34 (antibody, V domains shown)
VH: EVQLQQSGPELVKPGSSVKISCKASGYTFTDYNMDWVKQSHGKRLEWIGYIYPDNGGAGYNQKFKGKATLTVDKSSSTAYMELRSLTSEDSAVYYCSRSITTAWFAYWGQGTLVTVSA
VL: DIKMTQSPSSMYASLGERVTITCKASQDINSYLSWFQQKPGKSPKTLIYRANRLVDGVPSRFSGSGSGQDYSLTISSLEYEDMGIYYCLQYDEFPPTFGGGTKLEIK
notes: murine mAb

binding result [1]: binds
binding result [2]: no binding (tested: 1 µg/mL)
binding result [3]: binds
B2: SC17.17 (antibody, V domains shown)
VH: EVQLQQSGPEVMKPGASVKMSCKASGYTFTDYNMHWVKQNQGKSLEWIGEINPNIGGTGYNQKFKGKATLTVHKSSSTAYMELRSLTSEDSAVYYCARTYSYYSYEFAYWGQGTLVTVSA
VL: QIVLTQSPAIMSASPGEKVTMTCSASSSVSYMHWYQQKSGTSPKRWIYDTSKLPSGVPARFSGSGSGTSYSLTISSMEAEDAATYYCQQWSSTPPTFGAGTKLELK
notes: murine mAb
